Assay results reported in CN115073602A (SUZHOU ABCARTA MEDICAL TECH CO LTD, dated 2022).

What was measured:
[1] = target: T1, CD3抗原 (SEQ ID NO:1 合成多肽); test: ELISA screening of hybridoma clones on CD3 antigen (SEQ ID NO:1)
T1 construct: KLH/OVA conjugation is stated for immunisation only; also called CD3的多肽
T1 peptide: KGQRDLYSGLNQRRI

[2] = target: T2, CD3蛋白 (表达CD3蛋白的细胞); test: flow cytometry on CD3-expressing cells, against blank control without antibody
T2 construct: whole, on cells; also called 表达CD3蛋白细胞
T2 sequence (P07766 23-207): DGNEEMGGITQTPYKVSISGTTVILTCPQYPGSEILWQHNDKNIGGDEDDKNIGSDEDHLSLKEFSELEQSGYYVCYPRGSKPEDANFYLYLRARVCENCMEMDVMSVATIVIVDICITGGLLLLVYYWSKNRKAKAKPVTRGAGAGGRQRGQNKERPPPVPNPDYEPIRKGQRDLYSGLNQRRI

binding result [1]: binds | fold increase of MFI over blank control [2]: 1070 fold
B1: 230B2F6抗CD3重组兔单克隆抗体 (antibody, V domains shown)
VH: QSLEESGGRLVTPGTPLTLTCTASGFSLNDYWMSWVRQAPGKGLEWIGIIIRGGTTWYANWVKGRFTISKTSTTVDLKMTSPTTEDTATYFCARIGGGNTGFNLWGPGTLVTVSS
VL: AQVLTQTPSSVSEPVGGTVTINCQASENIYISLAWYQQKPGQPPNLLIYDASDLASGVPSRFSGSGSGTEFTLTISGVQCEDAATYYCQSYNYSSVTFGGGTEVVVK
notes: also called 230B2F6抗体; 230B2F6抗CD3单克隆抗体
